Test results published in paper PMC5667986.

Target: low-density lipoprotein receptor-related protein-1 (LRP-1), endogenous, human cells (human (endogenous in FTC-133))

biotin-based internalisation of cell surface β1-integrin in FTC-133 cells (10 min at 37°C), decrease with 500 nM RAP against untreated cells: 2 fold | percentage of Rab5a early endosomes positive for β1-integrin in FTC-133 cells (confocal), reduction with 500 nM RAP against control cells: 25%
Substance: β1-integrin, endogenous, human cells (from UniProt P05556 21-798) (receptor)
